Our source for the Kd values is patent US20190359937A1 (INNOVATIVE TARGETING SOLUTIONS, published 2019).

Assay [1] has as its target T1, HER2 (as used for the affinity measurement) (UniProt P04626 23-652, limits assumed). Kind of assay: affinity of the antibody for HER2; estimated to be several hundred nM, method not stated for this antibody.
Assay [2] addresses T1, HER2 (as used for the affinity …). Kind of assay: Biacore, antibody against HER2; format not stated.

B1: anti-HER2 antibody ITS001-V928 (antibody, V domains shown)
VH: QVQLVQSGAEVKKPGASVKVSCKASGYTFTSYGISWVRQAPGQGLEWMGWISAYNGNTNYAQKLQGRVTMTTDTSTSTAYMELRSLRSDDTAVYYCARELAYDAFDIWGQGTMVTVSS
VL: not shown
notes: The KD is told of the antibody before it was made into the IgG-TNFR1 receptor; also called ITS001-V928-based antibody; antibody of C644
As for B1, the Kd in assay [1] is over 200 nM.

B2: anti-HER2 antibody ITS001-V737 (antibody, V domains shown)
VH: QVQLVQSGAEVKKPGASVKVSCKASGYTFTSYGISWVRQAPGQGLEWMGWISAYNGNTNYAQKLQGRVTMTTDTSTSTAYMELRSLRSDDTAVYYCARELAYDAFDIWGQGTMVTVSS
VL: DIQMTQSPSSLSASVGDRVTITCRASQSISSYLNWYQQKPGKAPKLLIYAASSQAGLSLQSGVPSRFSGSGSGTDFTLTISSLQPEDFATYYCQQSYSTPLTFGGGTKVEIKR
notes: The KD by Biacore is told of the antibody before it was made into the IgG-TNFR1 receptor; also called ITS001-V737-based antibody; antibody of C645
The molecule B2 came in with a Kd in assay [2] of 107 nM.
